How the values were obtained:
MddM1 = system: T1, MddM1; assay: GC detection of DMS, Michaelis-Menten fit; type: biochemical, Mycolicibacterium poriferae; settings: pH 9, 40 °C
T1 construct: full length (210 aa, ~23 kDa native), GST-tagged in pGEX-4T-1, expressed in E. coli BL21(DE3), glutathione Sepharose purified; no tag removal told

[1] = substrate: CS; assay: GC detection of DMS, Michaelis-Menten fit; type: biochemical, Thermobispora bispora; settings: pH 8, 30 °C, SAM fixed at 1 mM, GST-tagged enzyme 2 µg
purified protein = substrate: C[S+](CC[C@H](N)C(=O)O)C[C@H]1O[C@@H](n2cnc3c(N)ncnc32)[C@H](O)[C@@H]1O; assay: purified protein; settings: pH 8, 30 °C, MeSH as co-substrate fixed at 1 mM, methyl donor

`C[S+](CC[C@H](N)C(=O)O)C[C@H]1O[C@@H](n2cnc3c(N)ncnc32)[C@H](O)[C@@H]1O` (some centres unmarked) [S-adenosine-methionine] gave a Km (MddM1; MeSH as co-substrate fixed at 1 mM, methyl donor) of 110 ± 50 µM.

Work on `CS` [methanethiol] yielded a Km (MddM1; SAM fixed at 1 mM, GST-tagged enzyme 1 µg) of 760 µM.

B1: TbMddM2 (Thermobispora bispora DSM 43833) (protein)
chain: MSAADVLPVNHHADHPGFSGVIGTVIGLIFLLAGRPTARLAADLAAVGPGDRVADIGCGPGTAVREAARRGAQATGVDPAPVMLRWARMAGRGEAMEWREGTAERVPLPDGWATVWWSLATVHHWKDVEAGLREAYRVLAPGGRLLAMERQIAPGATGQASHGWTRRQADAFADHCRAAGFTDVTVTAHRAGRRDVWVVTATRP
Molecule B1 has a Km [1] of 220 µM, a Km (purified protein) of 20 ± 10 µM and a kcat (purified protein) of 0.05 ± 0.01 s⁻¹.

From publication PMC12904073, “Two Novel S‐methyltransferases Confer Dimethylsulfide Production in Actinomycetota” (Advanced Science, 2025)
